From US20230265123A1, “PEPTIDES AND FORMULATIONS FOR CANCER TREATMENT” (Peptinovo Biopharma, Inc., priority 2020, published 2023)
Square brackets hold non-standard residues; d marks the D form. Ends that are not written are not given here. Aib = CC(C)(N)C(=O)O

Target: T1, human SR-BI (Homo sapiens, UniProt Q8WTV0)
T1 construct: expressed in transfected cells; host or cells: BHK(SR-BI) cells obtained from the NIH, GeneSwitch System (Invitrogen), induced with 10 nM mifepristone
T1 sequence (Q8WTV0 1-509 isoform Q8WTV0-2): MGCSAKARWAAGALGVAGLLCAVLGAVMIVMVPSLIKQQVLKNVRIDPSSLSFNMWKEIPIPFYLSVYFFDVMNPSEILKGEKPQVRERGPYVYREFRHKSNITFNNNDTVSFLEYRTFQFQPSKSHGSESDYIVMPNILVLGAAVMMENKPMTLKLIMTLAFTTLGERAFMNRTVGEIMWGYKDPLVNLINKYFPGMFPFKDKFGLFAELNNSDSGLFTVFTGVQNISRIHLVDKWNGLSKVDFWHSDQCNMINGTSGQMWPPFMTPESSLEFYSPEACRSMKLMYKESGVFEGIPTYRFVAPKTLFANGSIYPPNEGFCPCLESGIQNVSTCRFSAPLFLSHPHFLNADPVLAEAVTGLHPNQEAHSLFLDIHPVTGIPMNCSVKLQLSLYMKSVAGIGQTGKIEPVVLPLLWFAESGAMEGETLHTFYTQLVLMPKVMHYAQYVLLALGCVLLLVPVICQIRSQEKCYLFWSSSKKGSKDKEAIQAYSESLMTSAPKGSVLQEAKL
Assay: DiI uptake from DiI-labeled PALM by BHK(SR-BI) cells, uninduced or mifepristone-induced (SR-BI selectivity)
Format: cell-based
Conditions: for Induced Uptake: BHK(SR-BI) cells induced with 10 nM mifepristone; for Induced Uptake / Basal Uptake: DiI-labeled PALM 32 μg peptide/ml or DiI-labeled HDL 19 μg protein/ml, 4 hours, ± SEM (n = 4); for SR-BI Dependent Uptake: Increase over basal uptake; for Basal Uptake: uninduced BHK(SR-BI) cells
Procedure: The procedure essentially followed that described in Example 5. A 40 μl aliquot of 10 mM or peptide was combined with 56 μl of 20 mM POPC, 24 μl 20 mM SM(egg) and 16 μl 2.5 mM DiI in a small glass vial. The peptide and lipid stock solutions were prepared in 80% TBA/20% water. The DiI stock was prepared in 92% TBA/8% water. The solution was lyophilized, and the resultant cake was rehydrated by addition of 0.2 ml of Dulbeco's phosphate buffered saline. The solution was briefly swirled, water bath sonicated (for approx. 15 sec.) and placed in a 50° C. heating block for 20 minutes.
SR-BI interaction studies are done with BHK(SR-BI) cells obtained from the NIH. The cells were stably transfected with an inducible human SR-BI gene by means of the GeneSwitch™ System (Invitrogen). The cells were plated (96-well plate) (8000 cells/well) in growth medium (Dulbeco's modified Eagle medium containing 10% fetal bovine serum) containing 200 ug/ml each of zeocin and hygromycin. After 24 hours incubation, the growth medium was removed and replaced with 0.2% bovine serum albumin in Dulbeco's modified Eagle medium. The medium of cells to be induced for SR-BI expression also contained 10 nM mifepristone, added from a DMSO stock solution. DMSO alone was added to the medium of uninduced cells. The induction medium was removed after 24 hours incubation and replaced with medium containing DiI-labeled PALM (32 μg peptide/ml) or DiI-labeled HDL (19 μg protein/ml) (Kalen Biomedical, Montgomery Village, Md.). The test media were prepared by diluting an aliquot of Di-I-labeled PALM (Example 6) or the DiI-labeled HDL in 0.2% bovine serum albumin in Dulbeco's modified Eagle medium. The solutions were passed through 0.2 μm pore size, polyethersulfone, sterilization filters before use. The cells were incubated in test media for 4 hours. Next, the cells were washed 3 times with 0.1% albumin in Dulbeco's phosphate buffered saline (with calcium and magnesium). The last wash was replaced with 200 ul/well of t-butanol/water (95%/5%). The covered plate was left to stand at room temperature for 30 min with occasional shaking. The fluorescence in each well was detected at 520 nm excitation and 580 nm emission with a 550 nm cutoff filter on a […] Gemini fluorescence plate reader, the results are shown in Table 6 and FIG. 7.

Row | SR-BI Dependent Uptake [%] | Substance | Induced Uptake | Basal Uptake
1 | 35 | DVFQKLVELFNQLLEKWKQV [SEQ ID NO: 2, amphiphilic peptide used to form PALM] | 12 ± 2 (DiI in cells)/(Total DiI added) × 10^−3 | 9 ± 2 (DiI in cells)/(Total DiI added) × 10^−3
2 | 66 | DV{Aib}QKFLELFNQLLEKWKQV (DV[Aib]QKFLELFNQLLEKWKQV) [SEQ ID NO: 4, amphiphilic peptide used to form PALM] | 10 ± 1 (DiI in cells)/(Total DiI added) × 10^−3 | 6 ± 1 (DiI in cells)/(Total DiI added) × 10^−3
3 | 79 | DV{Aib}QKLFELFNQLLEKWKQV (DV[Aib]QKLFELFNQLLEKWKQV) [SEQ ID NO: 3, amphiphilic peptide used to form PALM] | 11 ± 2 (DiI in cells)/(Total DiI added) × 10^−3 | 6 ± 1 (DiI in cells)/(Total DiI added) × 10^−3
4 | 137 | D{Aib}FQKL{Aib}ELFNQL{Aib}EKWKQV (D[Aib]FQKL[Aib]ELFNQL[Aib]EKWKQV) [SEQ ID NO: 7, amphiphilic peptide used to form PALM] | 18 ± 2 (DiI in cells)/(Total DiI added) × 10^−3 | 8 ± 1 (DiI in cells)/(Total DiI added) × 10^−3

Further lines, the substance ahead of its results:

Row | Substance | SR-BI Dependent Uptake [%] | Induced Uptake | Basal Uptake
5 | DVFQKL{Aib}ELFKELLEKWKQV (DVFQKL[Aib]ELFKELLEKWKQV) [SEQ ID NO: 8, amphiphilic peptide used to form PALM] | 14 | 20 ± 9 (DiI in cells)/(Total DiI added) × 10^−3 | 17 ± 8 (DiI in cells)/(Total DiI added) × 10^−3
6 | DVFQKL{Aib}ELFNQLLEKWKQV (DVFQKL[Aib]ELFNQLLEKWKQV) [SEQ ID NO: 1, amphiphilic alpha-helical peptide used to form PALM] | 53 | 10 ± 1 (DiI in cells)/(Total DiI added) × 10^−3 | 6 ± 1 (DiI in cells)/(Total DiI added) × 10^−3
7 | DVFQKL{Aib}ELFNQL{Aib}EKFKQV (DVFQKL[Aib]ELFNQL[Aib]EKFKQV) [SEQ ID NO: 6, amphiphilic peptide used to form PALM] | 82 | 27 ± 3 (DiI in cells)/(Total DiI added) × 10^−3 | 15 ± 1 (DiI in cells)/(Total DiI added) × 10^−3
8 | DVFQKL{Aib}ELFNQL{Aib}EKWKQV (DVFQKL[Aib]ELFNQL[Aib]EKWKQV) [SEQ ID NO: 5, amphiphilic peptide used to form PALM] | 104 | 16 ± 2 (DiI in cells)/(Total DiI added) × 10^−3 | 8 ± 1 (DiI in cells)/(Total DiI added) × 10^−3
9 | DVFQKL{Aib}ELFQNL{Aib}EKWKQV (DVFQKL[Aib]ELFQNL[Aib]EKWKQV) [SEQ ID NO: 10, amphiphilic peptide used to form PALM] | 78 | 16 ± 2 (DiI in cells)/(Total DiI added) × 10^−3 | 9 ± 1 (DiI in cells)/(Total DiI added) × 10^−3
10 | DVFQKL{Aib}ELFQQL{Aib}EKWKQV (DVFQKL[Aib]ELFQQL[Aib]EKWKQV) [SEQ ID NO: 9, amphiphilic peptide used to form PALM] | 72 | 11 ± 2 (DiI in cells)/(Total DiI added) × 10^−3 | 6 ± 1 (DiI in cells)/(Total DiI added) × 10^−3
11 | PVLDLFRELLNELLEALKQKLK [SEQ ID NO: 11, reference compound] | 55 | 5 ± 1 (DiI in cells)/(Total DiI added) × 10^−3 | 3 ± 1 (DiI in cells)/(Total DiI added) × 10^−3
